Publication PMC12556802, “Rules of engagement: Determinants of chemokine receptor activation and selectivity by CCL27 and CCL28” (The Journal of Biological Chemistry, 2025)
Positions count from the first letter of the chain named. In names and notes the source's numbering stands. Read-outs that look alike come from different tables or passages of the source. Blank lines part the entries; values can stand above or below the binder they belong to.

Assays:
[1] = substrate: T1, CC chemokine receptor 10 (CCR10) on L1.2 cells (human) (UniProt P46092)
T1 sequence: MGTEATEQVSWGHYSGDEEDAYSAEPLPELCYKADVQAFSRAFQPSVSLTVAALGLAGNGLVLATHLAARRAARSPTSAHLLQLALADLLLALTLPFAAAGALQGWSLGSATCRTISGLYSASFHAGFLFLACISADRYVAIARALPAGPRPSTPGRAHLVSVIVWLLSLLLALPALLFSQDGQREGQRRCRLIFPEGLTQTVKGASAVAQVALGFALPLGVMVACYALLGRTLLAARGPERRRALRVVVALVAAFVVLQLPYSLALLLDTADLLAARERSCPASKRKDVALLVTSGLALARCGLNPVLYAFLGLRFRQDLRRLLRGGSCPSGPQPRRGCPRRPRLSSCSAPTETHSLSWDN

CCR10-RlucII [2] = biological target: T2, CCR10-RlucII (human, UniProt P46092 1-362); experiment: cell-based or functional assay
T2 sequence (looked up): T1 sequence

CCR10-RlucII [3] = biological target: T2, CCR10-RlucII
[4] = substrate: T1, ; remark: listed apart in the source
[5] = substrate: T1, ; remark: listed apart in the source

β-arrestin2 recruitment to CCR10-RlucII by BRET in HEK293 cells, EC50 of the chemokine (CCR10-RlucII [3]): 19 nM
β-arrestin2 recruitment to CCR10-RlucII by BRET in HEK293 cells, Emax relative to WT-CCL27 (CCR10-RlucII [3]): 1.8 fold
internalization of CCR10 on L1.2/CCR10 cells (3.1-100 nM chemokine, 45 min, 37 °C), percent of receptor remaining on the surface at 3.1 nM [4]: 30%
bare filter chemotaxis of L1.2/CCR10 cells, efficacy relative to WT CCL27 [5]: 1.1 fold
bare filter chemotaxis of L1.2/CCR10 cells, potency relative to WT CCL27 [5]: 10 fold
transendothelial migration of L1.2/CCR10 cells, efficacy relative to WT CCL27 [5]: 2.7 fold
transendothelial migration of L1.2/CCR10 cells, potency relative to WT CCL27 [5]: 3 fold
B3: F-CCL27 (ligand)
chain: FFLLPPSTACCTQLYRKPLSDKLLRKVIQVELQEADGDCHLQAFVLHLAQRSICIHPQNPSLSQWFEHQERKLHGTLPKLNFGMLRKMG

β-arrestin2 recruitment to CCR10-RlucII by BRET in HEK293 cells, efficacy relative to WT CCL27 (CCR10-RlucII [2]): 1.5 fold
β-arrestin2 recruitment to CCR10-RlucII by BRET in HEK293 cells, potency relative to WT CCL27 (CCR10-RlucII [2]): 3.5 fold
B4: NT28-CCL27 (ligand)
chain: ILPIASSCCTQLYRKPLSDKLLRKVIQVELQEADGDCHLQAFVLHLAQRSICIHPQNPSLSQWFEHQERKLHGTLPKLNFGMLRKMG

Further lines, the binder ahead of its results:

B1: F1A-CCL27 (ligand)
chain: ALLPPSTACCTQLYRKPLSDKLLRKVIQVELQEADGDCHLQAFVLHLAQRSICIHPQNPSLSQWFEHQERKLHGTLPKLNFGMLRKMG
migration of L1.2/CCR10 cells, dose-response (0.1 nM to 1 μM), reduction in efficacy relative to WT CCL27 [1]: 35%
migration of L1.2/CCR10 cells, dose-response (0.1 nM to 1 μM), reduction in potency relative to WT CCL27 [1]: 10 fold
transwell migration of L1.2/CCR10 cells at 50 nM chemokine, reduction compared to WT CCL27 [1]: 85%

B2: CCL27 (ligand)
chain: B1 chain with A1F
β-arrestin2 recruitment to CCR10-RlucII by BRET in HEK293 cells, EC50 of the chemokine (CCR10-RlucII [2]): 89 nM
